Two molecules from patent US20180155451A1 (published 2018) can be followed below.

Substitutions are numbered along the chain they refer to. Numbers in names are those of the source. Where two headings read alike, the source gives them in different places.

The target of experiment [1] is T1, FcgRIIa type R extracellular domain with C-terminal His tag (human, UniProt P12318 34-217).
T1 construct: extracellular domain; also called FcgRIIaR; FcgRIIa R; not shown: His tag at the C terminus
T1 sequence (looked up): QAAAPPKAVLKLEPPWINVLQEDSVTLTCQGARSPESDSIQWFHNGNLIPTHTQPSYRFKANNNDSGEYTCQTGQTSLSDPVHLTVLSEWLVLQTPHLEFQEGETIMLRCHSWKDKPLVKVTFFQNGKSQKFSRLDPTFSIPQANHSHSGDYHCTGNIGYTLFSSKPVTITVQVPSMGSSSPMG
The experiment can be described thus: SPR (Biacore), antibody captured on chip, soluble FcgR as analyte, kinetic 1:1 fit.

In experiment [2] the target is T1, FcgRIIa type R extracellular domain …. Described as above. Here is the method: (§1) The variants were assessed for the binding activity to FcgR Ia, FcgR IIaR, FcgR IIaH, and FcgRIIb according to the method described in Reference Example 8.
(§2) Analysis of interaction between obj ective antibody and the FcγR was carried out using Biacore T100 (GE Healthcare), Biacore T200, Biacore A100, and Biacore 4000. HBS-EP+ (GE Healthcare) was used as the running buffer, and the measurement temperature was set to 25° C. Chips produced by immobilizing the antigen peptide by the amine coupling method to a Series S sensor Chip CM5 (GE Healthcare), chips produced by allowing preliminarily biotinylated antigen peptides to interact with and immobilize onto a Series S Sensor Chip SA (certified) (GE Healthcare), chips produced by immobilizing Protein L (ACTIGEN, BioVision) to Series S Sencor Chip CM5 (GE Healthcare), or chips produced by immobilizing Protein A/G (Thermo Scientific) to Series S Sencor Chip CM5 (GE Healthcare) were used. Antibodies of interest were captured onto these chips, and allowed to interact to each FcγR diluted with running buffer. To regenerate and repeatedly use the chip, the antibodies captured onto the chip were washed off by reacting 10 mM glycine-HCl, pH 1.5.
The source holds these as a separate data set.

Experiment [3] concerns the target T2, FcgRIIa type H extracellular domain with C-terminal His tag (human, UniProt P12318 34-217).
T2 construct: extracellular domain; also called FcgRIIaH; FcgRIIa H; not shown: His tag at the C terminus
T2 sequence (looked up): T1 sequence (looked up) with R134H
The experiment in a line: SPR (Biacore), antibody captured on chip, soluble FcgR as analyte; too weak for kinetics, KD from steady-state 1:1 equation. Here is the method: (§3) KD can be calculated by substituting the values of Rmax, RI, and C into this equation. The values of RI and C can be determined from the sensorgram of the measurement results and measurement conditions. Rmax was calculated according to the following method.

Experiment [4] addresses T3, FcgRIIIa type V extracellular domain with C-terminal His tag (human, UniProt P08637 17-208).
T3 construct: extracellular domain; also called FcgRIIIaV; FcgRIIIa V; not shown: His tag at the C terminus
Described as above. As for the experimental part:
as §3

In experiment [5] the target is T2, FcgRIIa type H extracellular domain …. The description is as above. Here is the method: as §3
This is another data set of the same source.

The target in experiment [6] is T3, FcgRIIIa type V extracellular domain …. The experiment is described as above. Here is the method:
as §3
The source holds these as a separate data set.

For experiment [7], the target named is T1, FcgRIIa type R extracellular domain …. The experiment in a line: SPR (Biacore); KD of IL6R-B3/IL6R-L for this FcgR divided by KD of the sample. As for the experimental part:
as §2

Experiment [8] deals with T2, FcgRIIa type H extracellular domain …. The description is as above. As for the experimental part: as §2
The target of experiment [9] is T4, FcgRIIb extracellular domain with C-terminal His tag (human, UniProt P31994 43-217).
T4 construct: extracellular domain; Expressed in FreeStyle293 cells; also called FcγRIIb; 2b; not shown: His tag at the C terminus
T4 sequence (looked up): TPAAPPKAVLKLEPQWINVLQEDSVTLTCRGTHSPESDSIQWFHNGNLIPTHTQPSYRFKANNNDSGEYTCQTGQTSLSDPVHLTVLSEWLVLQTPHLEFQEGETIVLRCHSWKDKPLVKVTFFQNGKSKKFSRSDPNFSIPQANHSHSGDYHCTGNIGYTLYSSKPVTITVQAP
The experiment is described as above. As for the experimental part: as §2

Experiment [10] has as its target T1, FcgRIIa type R extracellular domain …. The description is as above. As for the experimental part: as §2
The source holds these as a separate data set.

The target of experiment [11] is T2, FcgRIIa type H extracellular domain …. The experiment is described as above. As for the experimental part: as §2
The source holds these as a separate data set.

Experiment [12] concerns the target T4, FcgRIIb extracellular domain with …. The experiment is described as above. Here is the method:
as §2
This is another data set of the same source.

Experiment [13] deals with T5, FcgRIa extracellular domain with C-terminal His tag (human, UniProt P12314 16-292).
T5 construct: extracellular domain; Expressed in FreeStyle293 cells; also called FcγRIa; not shown: His tag at the C terminus
T5 sequence (P12314 16-292): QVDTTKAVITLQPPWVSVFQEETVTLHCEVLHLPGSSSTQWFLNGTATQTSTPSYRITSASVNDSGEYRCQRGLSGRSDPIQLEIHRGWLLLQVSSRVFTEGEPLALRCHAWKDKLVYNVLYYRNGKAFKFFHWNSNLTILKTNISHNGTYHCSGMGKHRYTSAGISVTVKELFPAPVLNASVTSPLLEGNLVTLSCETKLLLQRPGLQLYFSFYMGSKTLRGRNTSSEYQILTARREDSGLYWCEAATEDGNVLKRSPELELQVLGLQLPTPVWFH
The experiment can be described thus: SPR (Biacore), antibody captured on chip, soluble FcgR as analyte, kinetic 1:1 fit.

The target in experiment [14] is T2, FcgRIIa type H extracellular domain …. The description is as above.
Experiment [15] addresses T4, FcgRIIb extracellular domain with …. Described as above.
The target in experiment [16] is T5, FcgRIa extracellular domain with …. Described as above. Here is the method: as §1, §2
This is another data set of the same source.

In experiment [17] the target is T2, FcgRIIa type H extracellular domain …. The description is as above. Here is the method:
as §1, §2
This is another data set of the same source.

The target of experiment [18] is T4, FcgRIIb extracellular domain with …. The experiment is described as above. Here is the method: as §1, §2
The source holds these as a separate data set.

Experiment [19] has as its target T3, FcgRIIIa type V extracellular domain …. The experiment is described as above.
Experiment [20] deals with T4, FcgRIIb extracellular domain with …. The experiment can be described thus: SPR (Biacore); KD of the sample for FcgRIIaR divided by its KD for FcgRIIb (selectivity for FcgRIIb). Here is the method: as §2

T3 sequence (P08637 17-208 F176V): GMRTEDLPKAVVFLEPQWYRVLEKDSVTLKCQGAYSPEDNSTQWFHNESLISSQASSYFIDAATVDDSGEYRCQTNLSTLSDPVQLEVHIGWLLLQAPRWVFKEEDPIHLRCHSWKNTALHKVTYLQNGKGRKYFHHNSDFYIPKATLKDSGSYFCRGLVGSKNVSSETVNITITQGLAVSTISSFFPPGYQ

B1: IL6R-BP208/IL6R-L (antibody, human IgG1, kappa)
heavy: QVQLQESGPGLVKPSETLSLTCAVSGHSISHDHAWSWVRQPPGEGLEWIGFISYSGITNYNPSLQGRVTISRDNSKNTLYLQMNSLRAEDTAVYYCARSLARTTAMDYWGEGTLVTVSSASTKGPSVFPLAPSSKSTSGGTAALGCLVKDYFPEPVTVSWNSGALTSGVHTFPAVLQSSGLYSLSSVVTVPSSSLGTQTYICNVNHKPSNTKVDKKVEPKSCDKTHTCPPCPAPDLLGDDSVFLFPPKPKDTLMISRTPEVTCVVVDVSDEDGEVKFNWYVDGVEVHNAKTKPREEQYNSTYRVVSVLTVLHQDWLNGKEYKCKVSNKALPRPIEKTISKAKGQPREPQVYTLPPSRDELTKNQVSLTCLVKGFYPSDIAVEWESNGQPENNYKTTPPVLDSDGSFFLYSKLTVDKSRWQQGNVFSCSVMHEALHNHYTQESLSLSP
light: not shown
notes: Homodimer; IL6R-BP208 is IL6R-B3 with E233D, G237D, P238D, H268D, P271G and A330R
On to B1, for which the Kd is 850 nM in [1]; 850 nM in experiment [2]; 8300 nM in experiment [3]; 53000 nM in [4]; 8300 nM in experiment [5]; 53000 nM in experiment [6].

B2: IL6R-BP253/IL6R-L (antibody, human IgG1, kappa)
heavy: B1 heavy with D235E, D239G, D240P, S269E, D270H, G273P, L330F, R332A
light: not shown
notes: Homodimer; IL6R-BP253 is IL6R-B3 with S267E and L328F
Regarding B2, the “Relative KD” value in [7] amounted to 480 ratio; in experiment [8] it was 0.9 ratio; in experiment [9] it was 349 ratio; in [10] it was 480 ratio; in experiment [11], 0.9 ratio; in experiment [12] it was 349 ratio. Also, the Kd in experiment [13] worked out at 0.05 nM; in [1], 2.3 nM; in [14], 860 nM; in [15], 8.9 nM; in experiment [16], 0.05 nM; in experiment [2], 2.3 nM. In addition, the dissociation constant (Kd) in experiment [17] is 860 nM; in [18] it was 8.9 nM; in experiment [19], 400 nM; in [4], 7100 nM. Moreover, in experiment [20], the “KD(IIaR)/KD(IIb)” value was 0.3 ratio.
